# Test results published in PMC6813310.
# Key:
# [1] = target: M2-1 fused to GFP, expressed by the recombinant virus RSV-M2-1-GFP (human respiratory syncytial virus, strain Long); experiment: co-IP; GFP-Trap beads on lysates of HEp-2 cells infected with RSV-M2-1-GFP, 14 h p.i., without RNAse in the lysis; immunoblot
# [2] = target: M2-1 fused to GFP, expressed by the recombinant virus RSV-M2-1-GFP (human respiratory syncytial virus, strain Long); experiment: co-IP; GFP-Trap beads on lysates of HEp-2 cells infected with RSV-M2-1-GFP or RSV-GFP (control), 14 h p.i., with RNAse (RNAse A or broad-spectrum nuclease) in the lysis; Tris 10 mM pH 7.5, NaCl 150 mM, IGEPAL CA-630 0.5%; overnight at 4 °C; immunoblot
# [3] = target: M2-1 fused to the N2 complementation fragment of NanoLuc (human respiratory syncytial virus, strain Long); experiment: split reporter (BiFC, NanoBiT); NanoLuc two-hybrid (N2H) complementation in HEK293T cells, 24 h after transfection; lysates incubated 1 h with 100 µg/ml RNAse A; normalized luminescence ratio (NLR) over control protein pairs
Substance,percent of total PABPC1 in the input co-immunoprecipitated [1],percent of total PABPC1 in the input co-immunoprecipitated [2],NLR as percent of the signal of the whole PABPC1 [3]
"cytoplasmic polyA-binding protein 1 (PABPC1), endogenous in HEp-2 cells (from UniProt P11940 1-636) (natural protein)",5.71%,2.08%,–
PABPC1 fragment 492-636 fused to the N1 fragment of NanoLuc (from UniProt P11940 492-636) (domain or fragment),–,–,50%
